In PMC3372476:

Biological target: Src-YN (mouse)
Test: split reporter (BiFC, NanoBiT); BiFC with YFP fragments YC (155-238) and YN (1-154) in co-transfected CHO-K1 cells on fibronectin-coated coverslips; whole cells, fixed (also live cells and TIRFM), wide-field fluorescence; cells scored as background, ER + punctate or only punctate

## YC-PTP1BWT (from UniProt P18031 1-435) (enzyme)
  % of cells with BiFC signal (ER + punctate): 86%
  % of cells with BiFC signal (only punctate): 14%
